Assay results taken from patent US20220251236A1 (Boehringer Ingelheim, published 2022).

Key:
[1] = target: T1, EGF5+6; test: flow cytometry on HEK293 cells expressing the DLL3 subdomain construct, PE anti-human secondary, control: secondary antibody only
T1 construct: also called Hu DLL3 EGF5+6 on HEK293 cells
T1 membrane-anchored DLL3 subdomain construct: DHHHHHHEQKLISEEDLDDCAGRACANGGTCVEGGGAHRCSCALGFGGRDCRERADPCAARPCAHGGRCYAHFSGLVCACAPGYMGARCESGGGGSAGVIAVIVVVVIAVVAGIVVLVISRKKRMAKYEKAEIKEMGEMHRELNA
Method: (§1) DLL3/CD3 binding proteins were produced by transient transfection of CHO-E cells with the pTT5 vectors carrying the chain-encoding genes, as described in Example 2. […] Bound molecules were detected with PE-conjugated anti-human secondary antibody (Sigma-Aldrich, #P8047). As negative control, cells were incubated with secondary antibody only.
(§2) The samples were measured by flow-cytometry. […] The sequences of the epitope domains are listed in Example 5, Table 3.

[2] = target: T2, EGF2+3; test: as above
T2 construct: also called Hu DLL3 EGF2+3 on HEK293 cells
T2 membrane-anchored DLL3 subdomain construct: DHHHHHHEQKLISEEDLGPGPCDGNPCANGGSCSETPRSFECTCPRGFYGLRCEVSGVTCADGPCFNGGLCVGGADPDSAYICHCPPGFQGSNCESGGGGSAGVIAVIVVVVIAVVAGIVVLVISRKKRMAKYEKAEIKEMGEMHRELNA
Method: as §1, §2

[3] = target: T3, EGF4+5; test: as above
T3 construct: also called Hu DLL3 EGF4+5 on HEK293 cells
T3 membrane-anchored DLL3 subdomain construct: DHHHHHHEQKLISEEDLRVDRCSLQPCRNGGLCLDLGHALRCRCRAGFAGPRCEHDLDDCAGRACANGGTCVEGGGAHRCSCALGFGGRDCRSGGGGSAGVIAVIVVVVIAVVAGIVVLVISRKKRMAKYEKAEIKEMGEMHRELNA
Method: as §1, §2

[4] = target: T4, EGF3+4; test: as above
T4 construct: also called Hu DLL3 EGF3+4 on HEK293 cells
T4 membrane-anchored DLL3 subdomain construct: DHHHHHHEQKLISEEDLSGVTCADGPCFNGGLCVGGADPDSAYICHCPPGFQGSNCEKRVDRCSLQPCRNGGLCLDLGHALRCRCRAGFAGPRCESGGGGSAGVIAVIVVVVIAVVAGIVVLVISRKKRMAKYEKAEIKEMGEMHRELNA
Method: as §1, §2

[5] = target: T5, EGF6+MEMBRANE PROXIMAL PEPTIDE; test: as above
T5 construct: also called Hu DLL3 EGF6+membrane proximal peptide on HEK293 cells
T5 membrane-anchored DLL3 subdomain construct: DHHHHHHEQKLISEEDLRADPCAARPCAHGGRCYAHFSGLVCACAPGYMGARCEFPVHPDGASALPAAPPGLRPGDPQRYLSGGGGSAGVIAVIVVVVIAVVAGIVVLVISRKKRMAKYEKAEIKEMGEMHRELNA
Method: as §1, §2

[6] = target: T6, Human CD3 E+G HuFc-6xHis (human); test: SPR (ProteOn XPR36), HuCD3E_HuCD3G-Fc amine-coupled, bispecific as analyte, Example 4B
T6 construct: also called hu CD3εγ-Fc
T6 sequence (chain, as listed by the source limits assumed): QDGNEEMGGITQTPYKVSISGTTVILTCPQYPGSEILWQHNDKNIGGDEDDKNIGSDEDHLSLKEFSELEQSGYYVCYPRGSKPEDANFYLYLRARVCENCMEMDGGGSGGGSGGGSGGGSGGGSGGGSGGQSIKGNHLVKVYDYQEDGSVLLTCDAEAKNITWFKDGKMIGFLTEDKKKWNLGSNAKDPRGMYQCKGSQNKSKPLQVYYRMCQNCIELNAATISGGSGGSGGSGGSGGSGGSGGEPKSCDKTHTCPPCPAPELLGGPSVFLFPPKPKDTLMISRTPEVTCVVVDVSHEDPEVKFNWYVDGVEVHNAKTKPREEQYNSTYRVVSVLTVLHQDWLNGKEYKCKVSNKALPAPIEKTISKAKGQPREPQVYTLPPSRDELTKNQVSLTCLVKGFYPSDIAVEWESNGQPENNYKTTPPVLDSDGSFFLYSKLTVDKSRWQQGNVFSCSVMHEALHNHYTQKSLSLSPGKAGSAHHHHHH
Method: The binding affinity of purified DLL3/CD3 bispecific constructs for recombinant human DLL3-ECD and Fc-fusion protein of human CD3 εγ subunits was determined by Surface Plasmon Resonance (SPR), using a ProteOn XPR36 instrument (Bio-Rad).
For binding kinetic determination to CD3, HuCD3E_HuCD3G-Fc (dissolved in pH 4.5 acetate) was immobilized directly onto the sensor surface through amine coupling for 360 sec at a flowrate of 30 μl/min vertically. The baseline was stabilized by injecting PBS-T-EDTA for 60 sec at a flowrate of 30 μl/min horizontally. The analytes (all anti-DLL3/CD3 molecules) were injected horizontally over the captured antibody for 600 sec at a flowrate of 30 μl/min and a dissociation for 1800 sec.

[7] = target: T7, trypsin inhibitor from glycine max soybean (Glycine max (soybean)); test: SPR (Biacore T200), trypsin inhibitor on CM5 chip, sample at 1 µM
T7 construct: also called Tryp
T7 sequence (P01070 25-205): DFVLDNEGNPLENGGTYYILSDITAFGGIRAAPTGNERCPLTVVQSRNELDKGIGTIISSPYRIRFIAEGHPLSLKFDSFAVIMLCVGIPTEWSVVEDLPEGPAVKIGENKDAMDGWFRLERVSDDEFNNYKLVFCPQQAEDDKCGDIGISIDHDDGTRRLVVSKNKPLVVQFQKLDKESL
From the text: To prepare the surface for the non-specific binding experiment, chicken egg white lysozyme and trypsin inhibitor from glycine max soybean were coupled manually to a series S CM5 chip with the surface density of 3000-5000 RU using the amine coupling kit according to the manufacture instructions.

B1: DLL3#11/CD3#1 (bispecific antibody, human IgG1, kappa, lambda, L234A L235A)
chain 1: QIVLTQSPAIMSASPGEKVTITCSASSSVTYIHWFQQNPGTSPKLWIYRTSYLASGVPARFSGSGSGTSYSLTISRMEAEDAATYYCQQRSSYPRTFGGGTKLEIKRTVAAPSVFIFPPSDEQLKSGTASVVCLLNNFYPREAKVQWKVDNALQSGNSQESVTEQDSKDSTYSLSSTLTLSKADYEKHKVYACEVTHQGLSSPVTKSFNRGECGGGGSEGKSSGSGSESKSTEGKSSGSGSESKSTGGGGSQVQLQQPGAELVQPGSSVKMSCKASGYAFSDYWITWVKQRPGQGLEWIGDIYPGSGSTKSSEKFKNKATLTADTSSSKAYIQFSSLTPEDSAVYYCVSLYYYGSHYLDTWGQGTTLTVSSASTKGPSVFPLAPSSKSTSGGTAALGCLVKDYFPEPVTVSWNSGALTSGVHTFPAVLQSSGLYSLSSVVTVPSSSLGTQTYICNVNHKPSNTKVDKRVEPKSCDKTHTCPPCPAPEAAGGPSVFLFPPKPKDTLMISRTPEVTCVVVDVSHEDPEVKFNWYVDGVEVHNAKTKPREEQYNSTYRVVSVLTVLHQDWLNGKEYKCKVSNKALPAPIEKTISKAKGQPREPQVYTLPPSREEMTKNQVSLWCLVKGFYPSDIAVEWESNGQPENNYKTTPPVLDSDGSFFLYSKLTVDKSRWQQGNVFSCSVMHEALHNHYTQKSLSLSPG
chain 2: EAVVTQEPSLTVSPGGTVTLTCRSSTGAVTTSNYANWVQEKPGQLPRGLIGGTNKRAPWVPARFSGSLLGGKAALTLSGAQPEDEAEYFCALWYSNLWVFGGGTKLTVLGQPKAAPSVTLFPPSSEELQANKATLVCLISDFYPGAVKVAWKADGSPVNTGVETTTPSKQSNNKYAASSYLSLTPEQWKSHRSYSCQVTHEGSTVEKTVAPAECSGGGGSEGKSSGSGSESKSTEGKSSGSGSESKSTGGGGSEVQLVESGGGLVQPGGSLKLSCAASGFTFNTYAMNWVRQAPGKGLEWVARIRSKYNNYATYYADSVKDRFTISRDDSKNTAYLQMNNLKTEDTAVYYCVRHGNFGNSYVSWFAYWGQGTLVTVSAASTKGPSVFPLAPSSKSTSGGTAALGCLVKDYFPEPVTVSWNSGALTSGVHTFPAVLQSSGLYSLSSVVTVPSSSLGTQTYICNVNHKPSNTKVDKRVEPKSCDKTHTCPPCPAPEAAGGPSVFLFPPKPKDTLMISRTPEVTCVVVDVSHEDPEVKFNWYVDGVEVHNAKTKPREEQYNSTYRVVSVLTVLHQDWLNGKEYKCKVSNKALPAPIEKTISKAKGQPREPQVYTLPPSREEMTKNQVSLSCAVKGFYPSDIAVEWESNGQPENNYKTTPPVLDSDGSFFLVSKLTVDKSRWQQGNVFSCSVMHEALHNRFTQKSLSLSPG
notes: Heterodimer of one DLL3 chain and one CD3 chain (scFab-Fc, knob-in-hole)
Question: Which results are given for B1?
Answer: binding result [1]: no binding (tested: 1.6 nM); binding result [2]: no binding (tested: 1.6 nM); binding result [3]: no binding (tested: 1.6 nM); binding result [4]: no binding (tested: 1.6 nM); binding result [5]: no binding (tested: 1.6 nM); Kd [6]: 2 nM; Non-specific binding (RU) [7]: 13 RU

B2: DLL3#1/CD3#1 (bispecific antibody, human IgG1, kappa, lambda, L234A L235A)
chain 1: EIVLTQSPGTLSLSPGERATLSCRASQSVSSNFLVWYQQKPGQAPRPLIYGASTRASGIPDRFSGSGSGADFTLTISRLEPEDFALYYCQQYGDSPYTFGQGTTLEIKRTVAAPSVFIFPPSDEQLKSGTASVVCLLNNFYPREAKVQWKVDNALQSGNSQESVTEQDSKDSTYSLSSTLTLSKADYEKHKVYACEVTHQGLSSPVTKSFNRGECGGGGSEGKSSGSGSESKSTEGKSSGSGSESKSTGGGGSQVQLVQSGAEVKKPGASVKVSCKASGNTFTNYYMHWVRQAPGPGLEWMGIIDPSVGSKSYAQKFLGRVTIARDTSTSTVFLDLYSLRSEDTAVYFCARAGKRFGESYFDYWGQGTLVTVSSASTKGPSVFPLAPSSKSTSGGTAALGCLVKDYFPEPVTVSWNSGALTSGVHTFPAVLQSSGLYSLSSVVTVPSSSLGTQTYICNVNHKPSNTKVDKRVEPKSCDKTHTCPPCPAPEAAGGPSVFLFPPKPKDTLMISRTPEVTCVVVDVSHEDPEVKFNWYVDGVEVHNAKTKPREEQYNSTYRVVSVLTVLHQDWLNGKEYKCKVSNKALPAPIEKTISKAKGQPREPQVYTLPPSREEMTKNQVSLWCLVKGFYPSDIAVEWESNGQPENNYKTTPPVLDSDGSFFLYSKLTVDKSRWQQGNVFSCSVMHEALHNHYTQKSLSLSPG
chain 2: EAVVTQEPSLTVSPGGTVTLTCRSSTGAVTTSNYANWVQEKPGQLPRGLIGGTNKRAPWVPARFSGSLLGGKAALTLSGAQPEDEAEYFCALWYSNLWVFGGGTKLTVLGQPKAAPSVTLFPPSSEELQANKATLVCLISDFYPGAVKVAWKADGSPVNTGVETTTPSKQSNNKYAASSYLSLTPEQWKSHRSYSCQVTHEGSTVEKTVAPAECSGGGGSEGKSSGSGSESKSTEGKSSGSGSESKSTGGGGSEVQLVESGGGLVQPGGSLKLSCAASGFTFNTYAMNWVRQAPGKGLEWVARIRSKYNNYATYYADSVKDRFTISRDDSKNTAYLQMNNLKTEDTAVYYCVRHGNFGNSYVSWFAYWGQGTLVTVSAASTKGPSVFPLAPSSKSTSGGTAALGCLVKDYFPEPVTVSWNSGALTSGVHTFPAVLQSSGLYSLSSVVTVPSSSLGTQTYICNVNHKPSNTKVDKRVEPKSCDKTHTCPPCPAPEAAGGPSVFLFPPKPKDTLMISRTPEVTCVVVDVSHEDPEVKFNWYVDGVEVHNAKTKPREEQYNSTYRVVSVLTVLHQDWLNGKEYKCKVSNKALPAPIEKTISKAKGQPREPQVYTLPPSREEMTKNQVSLSCAVKGFYPSDIAVEWESNGQPENNYKTTPPVLDSDGSFFLVSKLTVDKSRWQQGNVFSCSVMHEALHNRFTQKSLSLSPG
Question: B2 was tested. Which Kd [6] did it give?
Answer: The Kd was 2 nM.

B3: DLL3#7/CD3#1 (bispecific antibody, human IgG1, kappa, lambda, L234A L235A)
chain 1: EIVLTQSPDTLSLSPGERATLSCRASQSVNSNFLAWYQQKPGQTPRLLIFGTSSRATGIPDRFSGSGSGTDFTLTISRLEPEDFAVYYCQQYGSSPWTFGQGTKVEIRRTVAAPSVFIFPPSDEQLKSGTASVVCLLNNFYPREAKVQWKVDNALQSGNSQESVTEQDSKDSTYSLSSTLTLSKADYEKHKVYACEVTHQGLSSPVTKSFNRGECGGGGSEGKSSGSGSESKSTEGKSSGSGSESKSTGGGGSQVQLVESGGGVVQPGRSLRLSCAASGFTFSSYGMFWVRQAPGKGLEWVAVIWLDGDDEDYVDSVKGRFTISRDDSKNTLYLQMNSLRVDDTAIYYCARVLDYWGQGTLVTVSSASTKGPSVFPLAPSSKSTSGGTAALGCLVKDYFPEPVTVSWNSGALTSGVHTFPAVLQSSGLYSLSSVVTVPSSSLGTQTYICNVNHKPSNTKVDKRVEPKSCDKTHTCPPCPAPEAAGGPSVFLFPPKPKDTLMISRTPEVTCVVVDVSHEDPEVKFNWYVDGVEVHNAKTKPREEQYNSTYRVVSVLTVLHQDWLNGKEYKCKVSNKALPAPIEKTISKAKGQPREPQVYTLPPSREEMTKNQVSLWCLVKGFYPSDIAVEWESNGQPENNYKTTPPVLDSDGSFFLYSKLTVDKSRWQQGNVFSCSVMHEALHNHYTQKSLSLSPG
chain 2: EAVVTQEPSLTVSPGGTVTLTCRSSTGAVTTSNYANWVQEKPGQLPRGLIGGTNKRAPWVPARFSGSLLGGKAALTLSGAQPEDEAEYFCALWYSNLWVFGGGTKLTVLGQPKAAPSVTLFPPSSEELQANKATLVCLISDFYPGAVKVAWKADGSPVNTGVETTTPSKQSNNKYAASSYLSLTPEQWKSHRSYSCQVTHEGSTVEKTVAPAECSGGGGSEGKSSGSGSESKSTEGKSSGSGSESKSTGGGGSEVQLVESGGGLVQPGGSLKLSCAASGFTFNTYAMNWVRQAPGKGLEWVARIRSKYNNYATYYADSVKDRFTISRDDSKNTAYLQMNNLKTEDTAVYYCVRHGNFGNSYVSWFAYWGQGTLVTVSAASTKGPSVFPLAPSSKSTSGGTAALGCLVKDYFPEPVTVSWNSGALTSGVHTFPAVLQSSGLYSLSSVVTVPSSSLGTQTYICNVNHKPSNTKVDKRVEPKSCDKTHTCPPCPAPEAAGGPSVFLFPPKPKDTLMISRTPEVTCVVVDVSHEDPEVKFNWYVDGVEVHNAKTKPREEQYNSTYRVVSVLTVLHQDWLNGKEYKCKVSNKALPAPIEKTISKAKGQPREPQVYTLPPSREEMTKNQVSLSCAVKGFYPSDIAVEWESNGQPENNYKTTPPVLDSDGSFFLVSKLTVDKSRWQQGNVFSCSVMHEALHNRFTQKSLSLSPG
Question: Which Kd [6] does the source give for B3 here?
Answer: The Kd was 1 nM.
